Reference: the supplement of paper PMC9112550, “Optimization of the antimicrobial peptide Bac7 by deep mutational scanning” (BMC Biology, 2022)

What follows are sequences tested on Escherichia coli TOP10 (assay: shrunken log2 fold change of peptide-encoding DNA abundance (4.5 h post-induction vs induction); higher = less antimicrobial activity (less host growth inhibition)). Details: time post-induction: 4.5 h; library: site-saturation at positions 5, 18, 19, 20.
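Further: peptides expressed intracellularly from a pBAD plasmid library in pooled LB shake-flask culture, induced with 0.3% L-arabinose, DNA abundance read by NGS, three biological replicates, DESeq2 with apeglm shrinkage.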

| Sequence | shrunken log2 fold change |
| --- | --- |
| RRIRNRPPRLPRPRPRPNDAPRP | -0.221 |
| RRIRARPPRLPRPRPRPIHVPRP | -0.143 |
| RRIRSRPPRLPRPRPRPCQVPRP | -0.0521 |
| RRIRNRPPRLPRPRPRPINYPRP | -0.262 |
| RRIRQRPPRLPRPRPRPNMTPRP | -0.196 |
| RRIRKRPPRLPRPRPRPDTQPRP | 0.202 |
| RRIRTRPPRLPRPRPRPYEKPRP | -0.657 |
| RRIRARPPRLPRPRPRPLSGPRP | 0.334 |
| RRIRTRPPRLPRPRPRPQGAPRP | -0.0215 |
| RRIRERPPRLPRPRPRPKTVPRP | -0.0153 |
| RRIRNRPPRLPRPRPRPFKVPRP | 0.0253 |
| RRIRYRPPRLPRPRPRPFSLPRP | -1.22 |
| RRIRPRPPRLPRPRPRPKVMPRP | 0.294 |
| RRIRRRPPRLPRPRPRPMVQPRP | -0.00615 |
| RRIRCRPPRLPRPRPRPGFLPRP | -0.245 |
| RRIRMRPPRLPRPRPRPYMMPRP | -0.111 |
| RRIRRRPPRLPRPRPRPFEIPRP | -0.00184 |
| RRIRDRPPRLPRPRPRPFPPPRP | -0.113 |
| RRIRHRPPRLPRPRPRPEHVPRP | 0.0342 |
| RRIRWRPPRLPRPRPRPTLQPRP | 0.253 |
| RRIRNRPPRLPRPRPRPEKQPRP | 0.0721 |
| RRIRPRPPRLPRPRPRPVLGPRP | 0.122 |
| RRIRSRPPRLPRPRPRPSDHPRP | -0.555 |
| RRIRDRPPRLPRPRPRPRNRPRP | 0.0378 |
| RRIRRRPPRLPRPRPRPQFAPRP | 0.0495 |

| Sequence | shrunken log2 fold change |
| --- | --- |
| RRIRHRPPRLPRPRPRPFRIPRP | -0.127 |
| RRIRTRPPRLPRPRPRPQHMPRP | -0.518 |
| RRIRIRPPRLPRPRPRPNMNPRP | -0.773 |
| RRIRSRPPRLPRPRPRPDPDPRP | -0.0414 |
| RRIRLRPPRLPRPRPRPLDNPRP | -0.293 |
| RRIRQRPPRLPRPRPRPVPFPRP | -0.374 |
| RRIRHRPPRLPRPRPRPMIDPRP | -0.161 |
| RRIRKRPPRLPRPRPRPAICPRP | 0.0922 |
| RRIRNRPPRLPRPRPRPMKLPRP | -0.282 |
| RRIRMRPPRLPRPRPRPAAAPRP | 2.93 |
| RRIRERPPRLPRPRPRPKYAPRP | 0.0159 |
| RRIRIRPPRLPRPRPRPVAVPRP | -0.104 |
| RRIRIRPPRLPRPRPRPKDPPRP | -0.111 |
| RRIRYRPPRLPRPRPRPGRTPRP | -0.121 |
| RRIRLRPPRLPRPRPRPMWFPRP | 0.106 |
| RRIRTRPPRLPRPRPRPQLSPRP | 0.212 |
| RRIRGRPPRLPRPRPRPNWQPRP | 0.0611 |
| RRIRNRPPRLPRPRPRPATRPRP | 0.322 |
| RRIRERPPRLPRPRPRPSCNPRP | -0.0433 |
| RRIRNRPPRLPRPRPRPEFLPRP | 0.00817 |
| RRIRPRPPRLPRPRPRPMNMPRP | -0.668 |
| RRIRWRPPRLPRPRPRPTQVPRP | 0.477 |
| RRIRIRPPRLPRPRPRPTQKPRP | 0.0769 |
| RRIRNRPPRLPRPRPRPVQNPRP | -0.0269 |
| RRIRTRPPRLPRPRPRPTIVPRP | -0.0242 |

| Sequence | shrunken log2 fold change |
| --- | --- |
| RRIRNRPPRLPRPRPRPPNTPRP | -0.0466 |
| RRIRLRPPRLPRPRPRPYQVPRP | -0.0302 |
| RRIRRRPPRLPRPRPRPHVNPRP | -0.0608 |
| RRIRDRPPRLPRPRPRPMARPRP | 0.0954 |
| RRIRTRPPRLPRPRPRPINAPRP | -0.175 |
| RRIRRRPPRLPRPRPRPGLFPRP | 0.389 |
| RRIRMRPPRLPRPRPRPYSPPRP | -0.199 |
| RRIRMRPPRLPRPRPRPCFGPRP | -0.23 |
| RRIRWRPPRLPRPRPRPRNSPRP | 0.0821 |
| RRIRPRPPRLPRPRPRPSTDPRP | -0.207 |
| RRIRRRPPRLPRPRPRPMPTPRP | 0.178 |
| RRIRCRPPRLPRPRPRPTSYPRP | -0.119 |
| RRIRKRPPRLPRPRPRPQPSPRP | 0.567 |
| RRIRSRPPRLPRPRPRPVVMPRP | 0.0334 |
| RRIRIRPPRLPRPRPRPFFNPRP | -0.501 |
| RRIRARPPRLPRPRPRPGFGPRP | 0.667 |
| RRIRFRPPRLPRPRPRPQVMPRP | -0.265 |
| RRIRFRPPRLPRPRPRPQHKPRP | -0.51 |
| RRIRPRPPRLPRPRPRPPTWPRP | 0.302 |
| RRIRPRPPRLPRPRPRPTLQPRP | 0.353 |
| RRIRRRPPRLPRPRPRPITWPRP | -0.0299 |
| RRIRLRPPRLPRPRPRPFTCPRP | -0.115 |
| RRIRMRPPRLPRPRPRPLLMPRP | 0.205 |
| RRIRTRPPRLPRPRPRPYHLPRP | -0.805 |
| RRIRLRPPRLPRPRPRPHCRPRP | -0.254 |

| Sequence | shrunken log2 fold change |
| --- | --- |
| RRIRSRPPRLPRPRPRPAVEPRP | 0.39 |
| RRIRGRPPRLPRPRPRPSAAPRP | 2.09 |
| RRIRDRPPRLPRPRPRPPECPRP | 0.0841 |
| RRIRERPPRLPRPRPRPHCTPRP | -0.0432 |
| RRIRIRPPRLPRPRPRPEPLPRP | 0.0641 |
| RRIRQRPPRLPRPRPRPVGHPRP | -0.0132 |
| RRIRTRPPRLPRPRPRPHDLPRP | -0.0128 |
| RRIRGRPPRLPRPRPRPPSYPRP | 0.326 |
| RRIRMRPPRLPRPRPRPWHMPRP | 0.00487 |
| RRIRYRPPRLPRPRPRPGPWPRP | 0.18 |
| RRIRPRPPRLPRPRPRPPWQPRP | 0.443 |
| RRIRRRPPRLPRPRPRPVDYPRP | -0.0118 |
| RRIRWRPPRLPRPRPRPPYVPRP | -0.284 |
| RRIRIRPPRLPRPRPRPFAVPRP | 0.0425 |
| RRIRDRPPRLPRPRPRPWRFPRP | -0.277 |
| RRIRDRPPRLPRPRPRPLDKPRP | -0.0615 |
| RRIRSRPPRLPRPRPRPFFNPRP | 0.00333 |
| RRIRIRPPRLPRPRPRPCGWPRP | 0.0831 |
| RRIRHRPPRLPRPRPRPRAYPRP | -0.411 |
| RRIRHRPPRLPRPRPRPSVWPRP | -0.151 |
| RRIRTRPPRLPRPRPRPSKSPRP | -0.437 |
| RRIRPRPPRLPRPRPRPQDHPRP | -0.12 |
| RRIRSRPPRLPRPRPRPRYGPRP | 0.0513 |
| RRIRCRPPRLPRPRPRPHWMPRP | -0.371 |
| RRIRCRPPRLPRPRPRPGFVPRP | 0.528 |

| Sequence | shrunken log2 fold change |
| --- | --- |
| RRIRDRPPRLPRPRPRPQAPPRP | -0.0631 |
| RRIRNRPPRLPRPRPRPRPRPRP | 0.586 |
| RRIRKRPPRLPRPRPRPAHSPRP | 0.0695 |
| RRIRLRPPRLPRPRPRPTRQPRP | -0.0888 |
| RRIRSRPPRLPRPRPRPKYGPRP | -0.884 |
| RRIRYRPPRLPRPRPRPFLEPRP | -0.775 |
| RRIRCRPPRLPRPRPRPKPQPRP | 0.324 |
| RRIRFRPPRLPRPRPRPSVMPRP | -0.537 |
| RRIRDRPPRLPRPRPRPCLNPRP | 0.0235 |
| RRIRQRPPRLPRPRPRPMRFPRP | 0.0202 |
| RRIRSRPPRLPRPRPRPCSHPRP | -0.174 |
| RRIRARPPRLPRPRPRPTGHPRP | -0.132 |
| RRIRKRPPRLPRPRPRPRVGPRP | 0.279 |
| RRIRIRPPRLPRPRPRPALIPRP | -0.0428 |
| RRIRCRPPRLPRPRPRPCDFPRP | -0.0328 |
| RRIRPRPPRLPRPRPRPGQVPRP | 0.11 |
| RRIRIRPPRLPRPRPRPPKIPRP | -0.106 |
| RRIRYRPPRLPRPRPRPEYFPRP | -0.744 |
| RRIRNRPPRLPRPRPRPEVGPRP | 0.662 |
| RRIRIRPPRLPRPRPRPGLIPRP | -0.627 |
| RRIRQRPPRLPRPRPRPPWDPRP | 0.224 |
| RRIRDRPPRLPRPRPRPERMPRP | 0.216 |
| RRIRPRPPRLPRPRPRPQPYPRP | -0.177 |
| RRIRERPPRLPRPRPRPHKHPRP | -0.671 |
| RRIRLRPPRLPRPRPRPPTAPRP | 0.228 |

| Sequence | shrunken log2 fold change |
| --- | --- |
| RRIRRRPPRLPRPRPRPAIHPRP | 0.131 |
| RRIRERPPRLPRPRPRPRSVPRP | -0.219 |
| RRIRGRPPRLPRPRPRPAPEPRP | 1.34 |
| RRIRMRPPRLPRPRPRPNTWPRP | 0.454 |
| RRIRMRPPRLPRPRPRPTNPPRP | 0.149 |
| RRIRQRPPRLPRPRPRPTYWPRP | -0.247 |
| RRIRTRPPRLPRPRPRPGSGPRP | 0.344 |
| RRIRWRPPRLPRPRPRPTQLPRP | 0.0699 |
| RRIRNRPPRLPRPRPRPSADPRP | 0.212 |
| RRIRVRPPRLPRPRPRPRTTPRP | 0.378 |
| RRIRRRPPRLPRPRPRPWWSPRP | 0.105 |
| RRIRGRPPRLPRPRPRPMLLPRP | 0.548 |
| RRIRCRPPRLPRPRPRPDQIPRP | -0.212 |
| RRIRHRPPRLPRPRPRPYLCPRP | -0.0059 |
| RRIRYRPPRLPRPRPRPYWTPRP | -0.00804 |
| RRIRWRPPRLPRPRPRPVWMPRP | 0.333 |
| RRIRCRPPRLPRPRPRPPLSPRP | 0.312 |
| RRIRTRPPRLPRPRPRPCYGPRP | -0.146 |
| RRIRWRPPRLPRPRPRPAMIPRP | -0.0987 |
| RRIRQRPPRLPRPRPRPMQDPRP | -0.0104 |
| RRIRRRPPRLPRPRPRPASHPRP | 0.4 |
| RRIRPRPPRLPRPRPRPMIFPRP | -0.214 |
| RRIRVRPPRLPRPRPRPYSAPRP | -0.805 |
| RRIRKRPPRLPRPRPRPLPVPRP | 0.431 |
| RRIRRRPPRLPRPRPRPHEAPRP | 0.0262 |
